Experimental findings from patent US20260209318A1 (NATIONAL UNIVERSITY OF SINGAPORE, published 2026) are described below.

This test addresses SARS-CoV-2 spike protein RBD (SARS-CoV-2, UniProt P0DTC2 319-541). In words: multiplex sVNT, RBD-coated beads, PE-hACE2 as competitor.

B1: SS6V11-E7 (antibody, V domains shown)
VH: QVQLQESGPGLVKPSETLSLTCTVSGGFIGPHYWSWVRQPPGKGLEWIGYIYISGSTNYNPSLKSRLTISVDMSKSQFSLTLSSATAADTAVYYCARGGGYLETGPFEYWGQGTLVTVSS
VL: DIVMTQSPLSLPVTPGEPASISCRSSQSLLQNNGYNYLAWYLQKPGQSPQLLIYLSSTRASGVPDRFSGSGSGTDFTLKISRVEAEDVGVYYCMQSLQIPGTFGQGTRLEIK
In the case of B1, the binding result was “binds”.
